Data reported in publication PMC10530652 (BME Frontiers, 2021).

Key:
erythrocyte = assay: Erythrocyte hemolysis; assay type: cell-based
[1] = system: Salmonella typhimurium strain TA100; assay: Reduced test article AMES test, TA100; assay type: cell-based; conditions: up to 250 μg/well, in the absence and presence of rat liver S-9
Protocol: These conditions included treatments at concentrations up to 250 μg/well (a 20-fold pro rata reduction from the standard regulatory Ames assay maximum concentration), in the absence and in the presence of a rat liver metabolic activation system (S-9).

MMP-9 = biological target: T1, MMP-9 (Homo sapiens, UniProt P14780); assay: In vitro enzymatic validation of FIB One with recombinant MMP-9 (plate reader); assay type: biochemical; conditions: MMP 30 nM, n=3 in duplicate
T1 construct: recombinant MMPs (Enzo Life Sciences) (active domains of MMP-1, MMP-2, MMP-3, MMP-7, MMP-8, MMP-9, MMP-10, MMP-11, MMP-12, and MMP-13); purchased Enzo Life Sciences
T1 sequence (P14780 107-444 limits assumed): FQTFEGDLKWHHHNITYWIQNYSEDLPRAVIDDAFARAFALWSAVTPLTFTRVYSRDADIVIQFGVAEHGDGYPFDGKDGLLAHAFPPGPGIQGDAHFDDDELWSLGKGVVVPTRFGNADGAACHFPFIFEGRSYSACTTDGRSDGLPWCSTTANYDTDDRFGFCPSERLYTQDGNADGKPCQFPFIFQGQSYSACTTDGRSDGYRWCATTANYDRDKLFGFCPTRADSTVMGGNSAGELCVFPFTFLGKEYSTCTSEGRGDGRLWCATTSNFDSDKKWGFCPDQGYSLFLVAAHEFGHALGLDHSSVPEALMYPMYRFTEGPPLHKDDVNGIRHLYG
Protocol: To determine the enzymatic specificity of FIB One, the probe was incubated at a concentration of 1 μM (unless otherwise stated) with the recombinant MMPs (Enzo Life Sciences) (active domains of MMP-1, MMP-2, MMP-3, MMP-7, MMP-8, MMP-9, MMP-10, MMP-11, MMP-12, and MMP-13, all at 30 nM), thrombin (Sigma Aldrich) (5 U/mL), factor Xa (Sigma Aldrich) (500 nM), plasmin (Sigma Aldrich) (30 nM), and human neutrophil elastase (30 nM). Where appropriate, enzymes were incubated with specific inhibitors for 30 min at 37°C prior to addition of FIB One. […] Enzyme free reactions served as a control. Enzymatic reactions were performed in MMP buffer (10 mM CaCl2, 6.1 g Tris-HCl, 8.6 g NaCl per litre, pH 7.5) in a final volume of 20 μL. Reactions were performed in duplicate in 384-well plates (Life Technologies) with optically clear plate seals (Thermo Scientific) and repeated thrice (independently). Fluorescence signal was measured for up to 60 min, ex/em 485/528 nm using microplate reader (BioTek Synergy H1 multimode reader). Data were normalised to buffer alone and are presented as fold-change in signal (relative fluorescent units, RFU) compared to enzyme-free controls. Data were plotted using Prism 7 (GraphPad Software Inc., La Jolla, CA, USA).

[2] = system: stimulated human neutrophils; assay: FIB One cleavage in supernatant from stimulated neutrophils; assay type: cell-based; conditions: FIB One 1 μM, 10 min incubation with neutrophil supernatant
Protocol: Neutrophils were isolated from the blood of healthy human volunteers as previously described. The number of retrieved neutrophils was determined with NucleoCounter NC-1000 (Chemo Metec). Neutrophils were resuspended at a concentration of 20×10^6 mL^-1 in 0.9% NaCl with 0.9 mM CaCl2. Cells were incubated for 30 min at 37°C. Cells to be stimulated were subsequently activated with 5 μM calcium ionophore A23187 (Tocris Bioscience) for 30 min at 37°C. Neutrophils were harvested by centrifugation at 400 x g for 5 min. Supernatants were removed and stored. Plate reader assays were performed as described above, with the MMP buffer replaced with neutrophil supernatant. All experiments were carried out in duplicate using three independent donors (one donor per independent repeat). Data were normalised by background subtraction of intrinsic fluorescence.

[3] = system: patients with fibroproliferative lung disease; assay: Adverse events in the FIB One clinical study; assay type: in vivo, human
Protocol: In initial exploratory testing, 8 patients with either endobronchial tumour or parenchymal fibrosis underwent FIB One microdosing (<100 μg, <5 mL). FIB One was administered using a delivery catheter (ERBE APC catheter or TLBC) passed out of the working channel of the wedged bronchoscope into the bronchus allowing distal dissipation of the compound for alveolar imaging or applied directly onto visible tumour. FCFM imaging was performed pre- and postinstillation of FIB One, with the fibre tip positioned at the bronchial mucosa or passed into the alveolar region following transbronchial puncture, as appropriate for the clinical indication. Images were recorded for at least 30 s at 12 frames/second.
In subsequent testing the Miniaturized Alveoflex™-TLBC combination replaced the Alveoflex™ fibre. The entire apparatus was passed transbronchially to allow direct alveolar imaging before localised delivery of agents. Once transbronchial pass was accomplished, baseline lung imaging was recorded for at least 30 sec. A 500 μL microdose of either AZD1236 (14 μg/mL) or sterile PBS (control) was administered under direct observation, and further imaging was obtained for >60 sec. 500 μL of FIB One (20 μg/mL) (delivered only after at least 60s to allow MMP inhibition) was then dosed to the same area with a further 90-120 sec of imaging captured. If considerable movement due to breathing or coughing was encountered, imaging was halted and a new segment identified. Up to 6 segments of interest were investigated per patient determined by patient tolerance.
Table S5: Patient demographics and AEs part B. Three patients reported adverse events within the 24h period post procedure all of which are commonly associated with flexible bronchoscopy.

[4] = system: MMP activity in the alveolar space; assay: In-human alveolar FCFM imaging after endobronchial delivery of FIB One; assay type: in vivo; conditions: FIB One microdose <100 μg, bolus, patients with parenchymal fibrosis, n=4
Protocol: All participants were scheduled for routine, clinical diagnostic flexible bronchoscopy in our institution with a known or suspected diagnosis of fibrosis or lung cancer. All eight patients had computerized tomography performed prior to bronchoscopy and regions of active disease identified for targeted investigation.
Bronchoscopy was undertaken in an outpatient suite using local anaesthetic and conscious sedation or in theatre under general anaesthetic. FCFM was performed using a clinically approved confocal laser scanning endomicroscopy device (Cellvizio®, Mauna Kea Technologies) with a compatible imaging fibre (Alveoflex™ or Miniaturized Alveoflex™, Mauna Kea Technologies).
In initial exploratory testing, 8 patients with either endobronchial tumour or parenchymal fibrosis underwent FIB One microdosing (<100 μg, <5 mL). […] Images were recorded for at least 30 s at 12 frames/second.
All video sequences were assessed by two clinicians with clinical experience of pulmonary endomicroscopy. […] Videos were assessed to ensure stability throughout the imaging procedure. […] All video files were analysed using the Cellvizio® Viewer image processing software from Mauna Kea Technologies, Paris. […] The median RFU was calculated for each category and used as a comparative value between groups.

emphysema patients = conditions: 74 emphysema patients, placebo or AZD1236 75 mg twice daily for 6 weeks; cited from earlier work
Text: MMP inhibition has been identified as a target for drug interventions in inflammatory diseases. MMP inhibitors used in trials as cancer therapies were disappointing due to lack of efficacy and significant adverse effects. Studies have also been limited by a lack of quantifiable biomarkers to reflect on their in vivo and functional activity. […] It had previously been used in a phase 2A safety and tolerab ...

(Pro-Phe-Gly-Nle-Lys-βAla)3 [FIB One]
erythrocyte hemolysis (erythrocyte): absence of erythrocyte hemolysis
mutation induction [1]: did not induce mutation
fluorescent amplification of FIB One on exposure to enzyme (MMP-9; FIB One 1 μM, MMP buffer pH 7.5, ex/em 485/528 nm, fold-change vs enzyme-free control): rapid and specific fluorescent amplification
signal amplification compared with analogous monomeric linear structure (FRET-monomer) (MMP-9; probes 1 µM, 10 min incubation): improved signal amplification
cleavage of FIB One [2]: cleaved
Adverse Events ([3]; Part A, one line per patient DO01-DO08, FIB One microdose <100 μg): Nil and Haemoptysis and Cough and Fever
Adverse Events ([3]; Part B, one line per patient DO09-DO17, FIB One with or without AZD1236 via TLBC, within 24h post procedure): Nil and Cough and Cough Fever and Haemoptysis
significant adverse events ([3]; eight patients, endobronchial FIB One bolus): no significant adverse events
alveolar FCFM fluorescent signal following endobronchial delivery [4]: increased fluorescent signal

AZD1236
effect on the secondary lung physiology endpoints (emphysema patients): no effect
